Columns and labels:
Test in all cases: two-hybrid
[1] = molecular target: SUMO (small ubiquitin-like modifier, encoded by pmt3) (fission yeast (Schizosaccharomyces pombe)) (UniProt O13351)
[2] = molecular target: Tpz1 (fission yeast (Schizosaccharomyces pombe)) (UniProt O14246)
[3] = molecular target: chimeric protein SUMO-Tpz1(243-420) (fission yeast (Schizosaccharomyces pombe)) (UniProt O14246)

UniProt O13351, sequence (O13351 whole entry): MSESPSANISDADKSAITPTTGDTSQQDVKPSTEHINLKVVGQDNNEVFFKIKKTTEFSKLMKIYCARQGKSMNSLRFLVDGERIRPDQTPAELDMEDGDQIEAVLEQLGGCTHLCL
UniProt O14246, sequence (O14246 whole entry): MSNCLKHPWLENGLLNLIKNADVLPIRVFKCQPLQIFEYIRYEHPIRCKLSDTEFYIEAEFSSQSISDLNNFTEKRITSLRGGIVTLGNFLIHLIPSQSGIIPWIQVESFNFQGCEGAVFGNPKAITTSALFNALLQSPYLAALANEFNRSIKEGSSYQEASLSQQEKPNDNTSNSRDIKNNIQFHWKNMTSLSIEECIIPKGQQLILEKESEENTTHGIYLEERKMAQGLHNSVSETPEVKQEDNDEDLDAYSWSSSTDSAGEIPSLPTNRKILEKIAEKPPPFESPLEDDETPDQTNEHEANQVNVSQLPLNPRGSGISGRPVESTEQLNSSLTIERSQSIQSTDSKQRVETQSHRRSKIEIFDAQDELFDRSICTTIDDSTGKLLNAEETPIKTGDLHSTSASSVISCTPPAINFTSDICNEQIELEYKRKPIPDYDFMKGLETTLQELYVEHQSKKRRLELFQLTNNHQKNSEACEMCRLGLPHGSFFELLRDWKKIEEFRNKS

β-galactosidase activity (two-hybrid) (β-galactosidase U) [1]: 50
β-galactosidase activity (two-hybrid) (β-galactosidase U) [2]: 7
β-galactosidase activity (two-hybrid) (β-galactosidase U) [3]: 50
Substance: Ten1Stn1 fusion protein (Ten1, Gly15 linker, Stn1)

— article PMC5955624
